Source: patent publication US20230212549A1, “COMPOUNDS COMPRISING A […] LIGAND AND USE THEREOF” (priority 2021, published 2023)
Numbered stars: 1 amine (or outer) side, 2 acyl side, 3 side chain; on linkers, the order of the positions; unused ones are H or OH. Bridge positions count the residues as written; N and C are the ends. Square brackets hold non-standard residues; d marks the D form. Primed or numbered codes have the meaning given here. * marks the point of attachment. tMeBn(DOTA-PP) = 1,3,5-trimethylbenzylidene, two thioethers to Cys, third CH2 bound to one N of piperazine whose other N bears DOTA, O=C(O)CN1CCN(CC(=O)O)CCN(CC(=O)N2CCN(Cc3cc(C[*:1])cc(C[*:2])c3)CC2)CCN(CC(=O)O)CC1; Ttds″ = 1,13-diamino-4,7,10-trioxatridecan-succinamic acid spacer, O=C(CCC(=O)[*:2])NCCCOCCOCCOCCCN[*:1]; Ttds(6) = 1,13-Diamino-4,7,10-trioxatridecan-succinamic acid, O=C(CCC(=O)[*:2])NCCCOCCOCCOCCCN[*:1]; 3MeBn″ = 3-methylbenzylidene (meta-xylylene bridge from alpha,alpha'-dibromo-m-xylene); 3MeBn = 3-Methylbenzylidene (m-xylylene thioether bridge from α,α′-dibromo-m-xylene); N4Ac = 6-Carboxy-1,4,8,11-tetraazaundecane, an N4-chelator, NCCNCC(CNCCN)C(=O)*; APAc = 2-(4-(Amino)piperidin-1-yl)acetic acid, O=C(CN1CCC(N[*:1])CC1)[*:2]; 3MeBn(3) = 3-methylbenzylidene (m-xylylene), from α,α′-dibromo-m-xylene; Biotin = O=C1N[C@H]2[C@H](CS[C@H]2CCCCC(=O)*)N1; γGlu = O=C(O)[C@H](CCC(=O)[*:2])N[*:1]; mXylylene = c1cc(C[*:1])cc(C[*:2])c1; Nle = CCCC[C@H](N)C(=O)O; Nphe = O=C(O)CNCc1ccccc1; Hexanoyl = CCCCCC(=O)*; Nleu = CC(C)CNCC(=O)O; Nlys = NCCCCNCC(=O)O; Mpa = O=C(O)CCS

B1: N4Ac-Ttds-Glu(AGLU′)-Nle-[Cys-(3MeBn)-Pro-Pro-Thr-Glu-Phe-Cys]-OH (peptide)
peptide: N4Ac-[Ttds(6)]E[Nle]CPPTEFC-OH
modifications: linker 4-10 via 3MeBn; not fully specified (residue 2); printed as N4Ac-Ttds-Glu(AGLU′)-Nle-[Cys-(3MeBn)-Pro-Pro-Thr-Glu-Phe-Cys]-OH
B2: N4Ac-gGlu-Nle-[Cys-(3MeBn)-Pro-Pro-Thr-Glu-Phe-Cys]-OH (peptide)
peptide: N4Ac-[γGlu][Nle]CPPTEFC-OH
modifications: linker 3-9 via mXylylene
SMILES: CCCC[C@H](NC(=O)CC[C@H](NC(=O)C(CNCCN)CNCCN)C(=O)O)C(=O)N[C@H]1CSCc2cccc(c2)CSC[C@@H](C(=O)O)NC(=O)[C@H](Cc2ccccc2)NC(=O)[C@H](CCC(=O)O)NC(=O)[C@H]([C@@H](C)O)NC(=O)[C@@H]2CCCN2C(=O)[C@@H]2CCCN2C1=O
B3: Hex-[Cys(3MeBn)-Nlys-Pro-Thr-Gln-Phe-Cys]-NH2 (peptide)
peptide: Hexanoyl-C[Nlys]PTQFC-NH2
modifications: linker 1-7 via mXylylene
SMILES: CCCCCC(=O)N[C@H]1CSCc2cccc(c2)CSC[C@@H](C(N)=O)NC(=O)[C@H](Cc2ccccc2)NC(=O)[C@H](CCC(N)=O)NC(=O)[C@H]([C@@H](C)O)NC(=O)[C@@H]2CCCN2C(=O)CN(CCCCN)C1=O
B4: Hex-[Cys(tMeBn(DOTA-PP))-Pro-Thr-Pro-Phe-Gln-Cys]-Asp-NH2 (peptide)
peptide: Hexanoyl-CPTPFQCD-NH2
modifications: linker 1-7 via tMeBn(DOTA-PP)
SMILES: CCCCCC(=O)N[C@H]1CSCc2cc(cc(CN3CCN(C(=O)CN4CCN(CC(=O)O)CCN(CC(=O)O)CCN(CC(=O)O)CC4)CC3)c2)CSC[C@@H](C(=O)N[C@@H](CC(=O)O)C(N)=O)NC(=O)[C@H](CCC(N)=O)NC(=O)[C@H](Cc2ccccc2)NC(=O)[C@@H]2CCCN2C(=O)[C@H]([C@@H](C)O)NC(=O)[C@@H]2CCCN2C1=O
B5: Hex-[Cys(3MeBn)-Nphe-Pro-Thr-Gln-Phe-Cys]-NH2 (peptide)
peptide: Hexanoyl-C[Nphe]PTQFC-NH2
modifications: linker 1-7 via mXylylene
SMILES: CCCCCC(=O)N[C@H]1CSCc2cccc(c2)CSC[C@@H](C(N)=O)NC(=O)[C@H](Cc2ccccc2)NC(=O)[C@H](CCC(N)=O)NC(=O)[C@H]([C@@H](C)O)NC(=O)[C@@H]2CCCN2C(=O)CN(Cc2ccccc2)C1=O
B6: Hex-[Cys(tMeBn(DOTA-PP))-Phe-Gln-Thr-Pro-Pro-Cys]-Asp-NH2 (peptide)
peptide: Hexanoyl-CFQTPPCD-NH2
modifications: linker 1-7 via tMeBn(DOTA-PP)
SMILES: CCCCCC(=O)N[C@H]1CSCc2cc(cc(CN3CCN(C(=O)CN4CCN(CC(=O)O)CCN(CC(=O)O)CCN(CC(=O)O)CC4)CC3)c2)CSC[C@@H](C(=O)N[C@@H](CC(=O)O)C(N)=O)NC(=O)[C@@H]2CCCN2C(=O)[C@@H]2CCCN2C(=O)[C@H]([C@@H](C)O)NC(=O)[C@H](CCC(N)=O)NC(=O)[C@H](Cc2ccccc2)NC1=O
B7: Hex-[Cys(3MeBn)-Nleu-Pro-Thr-Gln-Phe-Cys]-NH2 (peptide)
peptide: Hexanoyl-C[Nleu]PTQFC-NH2
modifications: linker 1-7 via mXylylene
SMILES: CCCCCC(=O)N[C@H]1CSCc2cccc(c2)CSC[C@@H](C(N)=O)NC(=O)[C@H](Cc2ccccc2)NC(=O)[C@H](CCC(N)=O)NC(=O)[C@H]([C@@H](C)O)NC(=O)[C@@H]2CCCN2C(=O)CN(CC(C)C)C1=O
B8: H-Met-[Cys(3MeBn)-Pro-Pro-Thr-Glu-Phe-Cys]-Asp-His-Phe-Arg-Asp-Ttds-Lys(Bio)-NH2 (peptide)
peptide: H-MCPPTEFCDHFRD[Ttds″]K(Biotin)-NH2
modifications: linker 2-8 via mXylylene
SMILES: CSCC[C@H](N)C(=O)N[C@H]1CSCc2cccc(c2)CSC[C@@H](C(=O)N[C@@H](CC(=O)O)C(=O)N[C@@H](Cc2c[nH]cn2)C(=O)N[C@@H](Cc2ccccc2)C(=O)N[C@@H](CCCNC(=N)N)C(=O)N[C@@H](CC(=O)O)C(=O)NCCCOCCOCCOCCCNC(=O)CCC(=O)N[C@@H](CCCCNC(=O)CCCC[C@@H]2SC[C@@H]3NC(=O)N[C@@H]32)C(N)=O)NC(=O)[C@H](Cc2ccccc2)NC(=O)[C@H](CCC(=O)O)NC(=O)[C@H]([C@@H](C)O)NC(=O)[C@@H]2CCCN2C(=O)[C@@H]2CCCN2C1=O
B9: [3MeBn-Spa-Pro-Pro-Thr-Gln-Phe-Cys]-Asp-NH2 (peptide)
peptide: [Mpa]PPTQFCD-NH2
modifications: linker 1-7 via mXylylene
SMILES: C[C@@H](O)[C@@H]1NC(=O)[C@@H]2CCCN2C(=O)[C@@H]2CCCN2C(=O)CCSCc2cccc(c2)CSC[C@@H](C(=O)N[C@@H](CC(=O)O)C(N)=O)NC(=O)[C@H](Cc2ccccc2)NC(=O)[C@H](CCC(N)=O)NC1=O

target: human fibroblast activation protein (FAP) on WI-38 fibroblasts (human) (UniProt Q12884); test: competitive FACS, WI-38 cells, Cy5-labeled peptide as competitor

Row | pIC50 Category (FACS) | Binder
1 | < 6 pIC50 | B1
2 | < 6 pIC50 | B2
3 | < 6 pIC50 | B3
4 | < 6 pIC50 | N4Ac-[APAc][Nle]CPPTEFC-OH (linker 3-9 via 3MeBn(3)) [N4Ac-APAc-Nle-[Cys-(3MeBn)-Pro-Pro-Thr-Glu-Phe-Cys]-OH]
5 | < 6 pIC50 | B4
6 | < 6 pIC50 | B5
7 | < 6 pIC50 | B6
8 | < 6 pIC50 | B7

target: recombinant human PREP (R&D systems, #4308-SE) (human) (UniProt P48147); test: cell-based or functional assay
Sequence (P48147 whole entry): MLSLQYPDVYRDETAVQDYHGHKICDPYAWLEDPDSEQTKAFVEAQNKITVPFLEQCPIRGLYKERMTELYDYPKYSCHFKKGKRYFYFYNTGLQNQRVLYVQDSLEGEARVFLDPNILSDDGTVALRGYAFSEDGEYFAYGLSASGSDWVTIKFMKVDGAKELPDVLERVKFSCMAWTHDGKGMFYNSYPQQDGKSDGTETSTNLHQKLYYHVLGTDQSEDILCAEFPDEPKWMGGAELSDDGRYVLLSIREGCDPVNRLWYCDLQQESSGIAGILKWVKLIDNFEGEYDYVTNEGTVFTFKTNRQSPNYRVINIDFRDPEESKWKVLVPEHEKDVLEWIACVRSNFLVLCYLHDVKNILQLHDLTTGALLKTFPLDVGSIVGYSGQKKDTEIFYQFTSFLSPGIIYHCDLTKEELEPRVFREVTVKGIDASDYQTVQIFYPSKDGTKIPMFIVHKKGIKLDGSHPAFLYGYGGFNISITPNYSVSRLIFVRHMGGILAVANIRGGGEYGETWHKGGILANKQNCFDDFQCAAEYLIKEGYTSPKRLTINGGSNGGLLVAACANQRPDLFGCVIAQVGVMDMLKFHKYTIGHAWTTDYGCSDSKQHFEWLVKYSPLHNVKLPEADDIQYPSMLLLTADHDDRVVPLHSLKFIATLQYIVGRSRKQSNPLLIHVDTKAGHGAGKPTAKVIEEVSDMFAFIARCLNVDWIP

Row | pIC50 (PREP) | Binder
9 | < 6 pIC50 | B8
10 | < 6 pIC50 | B9
11 | < 6 pIC50 | Hexanoyl-CPPTEFC-NH2 (linker 1-7 via 3MeBn″) [Hex-[Cys(3MeBn)-Pro-Pro-Thr-Glu-Phe-Cys]-NH2]

target: Recombinant human DPP4 (R&D systems, #9168-SE) (human) (UniProt P27487); test: cell-based or functional assay
Sequence (P27487 29-766 limits assumed): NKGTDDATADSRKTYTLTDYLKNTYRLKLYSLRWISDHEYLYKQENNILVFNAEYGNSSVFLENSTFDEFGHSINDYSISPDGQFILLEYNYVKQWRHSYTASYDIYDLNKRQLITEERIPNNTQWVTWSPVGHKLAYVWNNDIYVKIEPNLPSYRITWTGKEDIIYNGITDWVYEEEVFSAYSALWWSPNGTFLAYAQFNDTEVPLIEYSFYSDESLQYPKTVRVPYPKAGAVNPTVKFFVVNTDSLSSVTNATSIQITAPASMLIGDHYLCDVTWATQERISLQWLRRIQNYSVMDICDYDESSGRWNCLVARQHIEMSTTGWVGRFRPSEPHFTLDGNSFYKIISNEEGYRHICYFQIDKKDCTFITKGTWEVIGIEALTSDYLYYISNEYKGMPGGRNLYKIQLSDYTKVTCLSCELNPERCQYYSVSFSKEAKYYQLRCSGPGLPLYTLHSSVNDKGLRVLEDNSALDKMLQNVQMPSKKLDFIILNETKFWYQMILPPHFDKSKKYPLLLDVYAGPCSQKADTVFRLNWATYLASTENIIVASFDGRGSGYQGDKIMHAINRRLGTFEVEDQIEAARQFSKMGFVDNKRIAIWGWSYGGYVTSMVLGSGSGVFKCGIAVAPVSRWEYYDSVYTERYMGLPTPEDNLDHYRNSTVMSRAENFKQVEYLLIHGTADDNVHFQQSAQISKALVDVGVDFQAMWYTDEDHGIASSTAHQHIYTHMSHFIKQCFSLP

Row | pIC50 (DPP4) | Binder
12 | < 6 pIC50 | B8
13 | < 6 pIC50 | B9
14 | < 6 pIC50 | Hexanoyl-CPPTEFC-NH2 (linker 1-7 via 3MeBn″) [Hex-[Cys(3MeBn)-Pro-Pro-Thr-Glu-Phe-Cys]-NH2]
